According to US20240287172A1 (SCIRHOM, published 2024):

T1: hiR2-FL-W526A-T7 (human, UniProt Q6PJF5 1-856)
T1 sequence: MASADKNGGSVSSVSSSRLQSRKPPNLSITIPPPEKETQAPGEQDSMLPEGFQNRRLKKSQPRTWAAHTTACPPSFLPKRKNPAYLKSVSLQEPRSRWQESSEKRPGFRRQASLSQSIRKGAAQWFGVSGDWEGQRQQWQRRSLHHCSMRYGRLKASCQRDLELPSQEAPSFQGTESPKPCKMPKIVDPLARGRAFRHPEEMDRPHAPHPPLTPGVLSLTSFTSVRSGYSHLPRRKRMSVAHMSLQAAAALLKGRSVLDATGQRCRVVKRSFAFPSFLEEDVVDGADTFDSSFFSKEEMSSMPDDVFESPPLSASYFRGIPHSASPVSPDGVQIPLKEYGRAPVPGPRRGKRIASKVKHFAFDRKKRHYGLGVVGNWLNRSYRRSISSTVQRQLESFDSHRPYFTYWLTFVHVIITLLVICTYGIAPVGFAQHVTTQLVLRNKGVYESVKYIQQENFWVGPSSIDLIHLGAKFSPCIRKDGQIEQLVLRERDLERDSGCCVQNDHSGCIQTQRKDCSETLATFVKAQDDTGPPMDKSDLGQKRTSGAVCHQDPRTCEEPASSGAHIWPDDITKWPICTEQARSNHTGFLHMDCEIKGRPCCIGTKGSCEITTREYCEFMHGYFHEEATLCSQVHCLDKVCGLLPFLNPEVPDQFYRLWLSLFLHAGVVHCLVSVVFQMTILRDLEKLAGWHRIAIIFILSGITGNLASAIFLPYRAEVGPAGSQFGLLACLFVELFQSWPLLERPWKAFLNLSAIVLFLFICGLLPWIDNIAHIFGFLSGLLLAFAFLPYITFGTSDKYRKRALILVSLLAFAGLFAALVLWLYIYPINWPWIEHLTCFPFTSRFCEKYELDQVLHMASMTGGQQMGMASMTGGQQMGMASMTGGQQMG

T2: hiR2-FL-C508A-T7 (human, UniProt Q6PJF5 1-856)
T2 construct: reduced surface expression reported
T2 sequence: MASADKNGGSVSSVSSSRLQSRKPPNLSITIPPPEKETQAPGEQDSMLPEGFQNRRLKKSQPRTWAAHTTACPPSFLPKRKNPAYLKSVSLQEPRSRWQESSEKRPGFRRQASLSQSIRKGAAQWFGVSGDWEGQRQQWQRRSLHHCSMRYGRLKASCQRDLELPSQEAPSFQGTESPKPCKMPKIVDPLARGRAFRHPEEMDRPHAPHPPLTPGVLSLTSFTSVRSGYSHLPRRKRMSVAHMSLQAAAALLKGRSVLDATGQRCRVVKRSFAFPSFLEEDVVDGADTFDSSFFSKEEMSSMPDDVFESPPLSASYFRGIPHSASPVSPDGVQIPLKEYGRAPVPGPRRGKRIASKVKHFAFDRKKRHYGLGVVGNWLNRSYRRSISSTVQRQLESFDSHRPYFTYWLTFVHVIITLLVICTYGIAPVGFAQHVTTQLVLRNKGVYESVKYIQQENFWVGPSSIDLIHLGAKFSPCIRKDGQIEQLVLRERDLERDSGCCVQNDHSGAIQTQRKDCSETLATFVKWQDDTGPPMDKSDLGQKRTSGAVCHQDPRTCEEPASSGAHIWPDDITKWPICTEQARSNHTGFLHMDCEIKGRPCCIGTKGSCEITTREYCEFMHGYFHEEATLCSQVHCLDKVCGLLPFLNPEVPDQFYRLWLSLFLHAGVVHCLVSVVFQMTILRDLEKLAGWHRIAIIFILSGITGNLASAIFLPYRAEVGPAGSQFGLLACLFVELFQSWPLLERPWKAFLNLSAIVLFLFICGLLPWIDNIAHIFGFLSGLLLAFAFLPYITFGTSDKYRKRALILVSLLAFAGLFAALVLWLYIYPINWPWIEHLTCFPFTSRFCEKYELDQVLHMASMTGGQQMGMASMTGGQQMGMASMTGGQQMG


Columns and labels:
[1] = target: T1, hiR2-FL-W526A-T7; assay: FACS on MEF-DKO cells expressing the variant, 3 µg/ml antibody
Experimental: (§1) To pellet cells and remove supernatants, the plates were centrifuged at 1,500 rpm and 4° C. for 3 minutes. For primary staining, cells were resuspended in 100 μl per well of either FACS buffer alone (controls) or the purified antibodies 3, 5, 16, 22, 34, 42, 43, 44, 48, and 50 of the invention at 3 μg/ml in FACS buffer and incubated on ice for 1 hour. Afterwards, plates were centrifuged at 1,500 rpm and 4° C. for 3 minutes and washed twice with 200 μl per well of FACS buffer. For secondary staining, cells were spun down and resuspended in 100 μl per well of PE-conjugated goat anti-mouse IgG F(ab′)2 detection fragment (Dianova, Germany) diluted 1:100 in FACS buffer. Protected from light, the cell suspensions were incubated on ice for 1 hour. Plates were then centrifuged at 1,500 rpm and 4° C. for 3 minutes and washed three times with 200 μl per well of FACS buffer. Finally, cells were resuspended in 150 μl per well of FACS buffer and analyzed using a BD Accuri™ C6 Plus flow cytometer (Becton Dickinson, Germany).

[2] = target: T2, hiR2-FL-C508A-T7; assay: as above
Experimental: as §1

| Binder | loss of binding vs wild type [1] | loss of binding vs wild type [2] |
| --- | --- | --- |
| antibody 5 (antibody, V domains shown, mouse IgG, kappa light chain; also called clone #5; purified antibody 5) VH: QVTLKESGPGILQPSQTLSLTCSFSGFSLSTFGMGVGWIRQPSGKGLEWLAHIWWDDEKYYNSALKSRLTISKATSKNQAFLKIANVDTADTATYYCARISNYGSNYWYFNVWGTGTTVTVSS VL: QVVLTQSPALMSASPGEKVTMTCSAGSSVSCMYWYQQKPGSSPRVLIYDTSNLASGVPARFTGSGSGTSYSLTISRMEAEDAASYYCQQWNSYPLTFGAGTKLELK | ≥ 60% | ≥ 30% |
| antibody 43 (antibody, V domains shown, mouse IgG, kappa light chain; also called clone #43; purified antibody 43) VH: QVALKESGPGILQPSQTLSLTCSFSGFSLSTFGMGVGWIRQSSGKGLEWLANIWWDDDKYYNPALKSRLTISKDASKNQAFLKIANVDTADTATYYCARIGNYGSNYWYFDVWGTGTTVTVSS VL: QIVLTQSPAIMSASPGERVTMTCSANSRISYMYWYQQKPGSSPRLLIYDTSNLASGVPVRFSGSGSGTSYSLTISRMEAEDAATYNCQQWSSYPLTFGAGTKLELK | ≥ 30% | ≥ 30% |
| antibody 42 (antibody, V domains shown, mouse IgG, kappa light chain; also called clone #42; purified antibody 42) VH: QVTLKESGPGILQPSQTLSLTCSLSGFSLSTFGRGVGWIRQPSGKGLEWLAHIWWDDEKYYNPALKSRLTISKDTSKNQVFLRIANVDTADTATYYCARIQNYGSNYWYFDVWGTGTTVTVSS VL: LIVLTQSPAIMSASPGEKVTMTCGATSRISYMFWYQQKPGSSPRVLIYDTSNLASGVPVRFSGSGSGTSYSLTISRVEAEDVATYYCQQWNSYPLTFGAGTKLELK | ≥ 30% | ≥ 30% |
| antibody 44 (antibody, V domains shown, mouse IgG, kappa light chain; also called clone #44; purified antibody 44) VH: QVTLKESGPGILQPSQTLSLTCSFSGFSLSTFGMGVGWIRQPSEKGLEWLAHIWWDDDKYYNPALKSRLTISKDTSKNQIFLKITNVDTAETATYYCSRIGNYGSNYWYFDVWGTGTTVTVSS VL: QIVLTQSPAVMSASPGEKVTMTCTASSSVYYMYWYQQTPGSSPRLLIYDTSNLASGVPVRFSGSGSGTSYSLTISRMEAEDAATYYCQQWNTYPLTFGAGTKLELK | ≥ 30% | ≥ 30% |
| antibody 22 (antibody, V domains shown, mouse IgG, kappa light chain; also called clone #22; purified antibody 22) VH: QVTLKESGPGILQPSQTLSLTCSFSGFSLSTFGMGVGWIRQPSGKGLEWLAHIWWDDEKYYNSALKSRLTISKATSKNQVFLKIANVDTADTATYYCARISNYGSNYWYFNVWGTGTTVTVSS VL: QVVLTQSPALMSASPGEKVTMTCSAGSSVSYMYWYQQKPGSSPRVLIYDTSNLASGVPARFTGSGSGTSYSLTISRMEAEDAATYYCQQWNSYPLTFGAGTKLELK | ≥ 30% | ≥ 30% |
| antibody 48 (antibody, V domains shown, mouse IgG, kappa light chain; also called clone #48; purified antibody 48) VH: QVQLQQSGTELVRPGTSVKVSCKASGYAFTNYLIEWVKQRPGQGLEWIGVINPGSGFTKYNEKFKGKATLTADKSSSTVYMHLSSLTSEDSAVYFCARGLYRAMDYWGQGTSVTVSS VL: DIQMTQSPASQSASLGESVTITCLASQTIATWLAWYQQKPGKSPQLLIYGATTLADGVPSRFSGGGSGTKFSFKISSLQAEDFVSYYCQQLYSTPYTFGGGTKLEIK | ≥ 30% |  |
| antibody 50 (antibody, V domains shown, mouse IgG, kappa light chain; also called clone #50; purified antibody 50) VH: QVQLQQSGAELVRPGASVKVSCKASGYAFSNYLIEWVKQRPGQGLEWIGVINPGSGFTKYNEKFKGKATLTADKSSSTAYMQLSSLTSEDSAVYFCARGLYRAMDYWGQGTSVTVSS VL: DIQMTQSPASQSASLGESVTITCLASQTIGTWLAWYQQKPGKSPQLLIYAAASLADGVPSRFSGGGSGTKFSFKISSLQAEDFVNYYCQQIYSTPYTFGGGTKLEIK | ≥ 30% |  |
| antibody 3 (antibody, V domains shown, mouse IgG, kappa light chain; also called clone #3; purified antibody 3) VH: QVTLKESGPGILQPSQTLSLTCSFSGFSLTTFAMGIGWVRQPSGKGLEWLAHIWWDGEKYNNPVLKSRLTISKDTSKNQVFLRIANVDTPDTATYYCARISSIYYIIDNWGQGTSVTVSS VL: DIVLTQSPATLSVTPGHSVSLSCRASQSISNNLHWYQKKSHESPRLLIKYVSQSISGIPSRFSGSGSGTDFTLSINSVETEDFGMYFCQQSYNWPLTFGAGTKLELK | ≥ 30% |  |
| antibody 34 (antibody, V domains shown, mouse IgG, kappa light chain; also called clone #34; purified antibody 34) VH: QVTLKESGPGILQPSQTLSLTCSFSGFSLSTFSLGVGWIRQSSGKGLEWLAHIWWDDEKYYNPALKSRLTISKDTSKNQVFLKIANVDAADTATYYCARAYYSKSYYALDYWGQGTSVTVSS VL: DIQMTQSPSSLSASLGERVSLTCRASQEISGYLSWLQQKPDGTIKRLIYAASTLDSGVPKRFSGSRSGSDYSLAISSLESEDFADYYCLQYANFPFTFGSGTKLEIK | ≥ 60% | ≥ 30% |
